# Experimental data taken from paper PMC2813365.
# B1: non-cognate 17bp (dsDNA)
# DNA 1: TGTGCATAGTGGTGCGA
# DNA 2: TCGCACCACTATGCACA
# B2: cognate 8bp (dsDNA)
# DNA 1: TGCATGCA
# DNA 2: TGCATGCA
# How the values were obtained:
# PF14_0633 AP2 domain [1] = target: T1, PF14_0633 AP2 domain (Plasmodium falciparum, UniProt Q8IKH2 63-123); test: size exclusion chromatography
# PF14_0633 AP2 domain [2] = target: T1, PF14_0633 AP2 domain; test: X-ray crystallography
Binder,binding result (PF14_0633 AP2 domain [1]),binding result (PF14_0633 AP2 domain [2])
B1,binds,–
B2,–,binds
